# Target: SARS-CoV-2 N-CTD (nucleocapsid C-terminal domain) (SARS-CoV-2, UniProt P0DTC9 247-364)
# Experiment: BLI; BLI and EMSA: 25 mM sodium phosphate, 50 mM NaCl, pH 6.0; EMSA 25 C, 30 min, 10 uM RNA, 20% native PAGE
# Conditions: protein: recombinant; biotinylated for BLI; 15N-labelled for NMR; chain copies: 2; label: none
binder,measurement,value
AUAUGGAAGAGCCCUA (ssRNA) [15-nt SARS-CoV-2 genome-derived RNA],Kd,~10.1 µM
